Data reported in patent US20210238260.

Tests used:
[1] = molecular target: plasma purified human AT-III (antithrombin III); test: same assay; ratio to K0.5 of Catalyst Biosciences WT FIXa; from lower limit value
[2] = molecular target: plasma purified human AT-III (antithrombin III), in complex with full-length unfractionated heparin (UFH); test: ratio of K0.5 of the variant to K0.5 of Catalyst Biosciences WT FIXa, AT-III/UFH inhibition
[3] = molecular target: plasma purified human antithrombin III (AT-III), in complex with unfractionated heparin; test: K0.5 of variant over K0.5 of Catalyst Biosciences WT FIXa; AT-III/UFH inhibition assay; from lower limit K0.5
[4] = molecular target: plasma purified human antithrombin III (AT-III), in complex with unfractionated heparin (UFH); test: ratio of K0.5 for AT-III/UFH inhibition, variant over Catalyst Biosciences WT FIXa

Sequence of Factor X (FX), P00742 (P00742 whole entry, looked up): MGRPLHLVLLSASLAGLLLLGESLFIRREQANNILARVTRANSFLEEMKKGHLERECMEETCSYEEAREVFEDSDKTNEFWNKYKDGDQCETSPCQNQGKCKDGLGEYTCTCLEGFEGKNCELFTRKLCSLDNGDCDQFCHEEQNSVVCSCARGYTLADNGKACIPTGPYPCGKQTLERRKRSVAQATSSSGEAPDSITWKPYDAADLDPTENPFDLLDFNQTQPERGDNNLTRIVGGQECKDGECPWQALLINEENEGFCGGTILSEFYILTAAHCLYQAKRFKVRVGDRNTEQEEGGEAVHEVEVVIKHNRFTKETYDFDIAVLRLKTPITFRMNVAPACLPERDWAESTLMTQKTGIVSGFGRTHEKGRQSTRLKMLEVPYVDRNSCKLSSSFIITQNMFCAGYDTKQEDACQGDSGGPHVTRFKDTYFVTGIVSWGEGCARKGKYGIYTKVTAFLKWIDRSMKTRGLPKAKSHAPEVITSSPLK
Sequence of Factor X, P00742 (P00742 whole entry, looked up): as above

Row | Protein | K0.5-mut/K0.5-wt [1] | KM (Factor X, P00742) [µM] | kcat (Factor X (FX), P00742) [s⁻¹] | K0.5-mut/K0.5-wt [2] | KM (Factor X (FX), P00742) [µM] | also measured
1 | FIXa-D104N/K106S/R318Y/R338E/R403E/E410N (protein) chain 1: YNSGKLEEFVQGNLERECMEEKCSFEEAREVFENTERTTEFWKQYVDGDQCESNPCLNGGSCKDDINSYECWCPFGFEGKNCELDVTCNIKNGRCEQFCKNSANNSVVCSCTEGYRLAENQKSCEPAVPFPCGRVSVSQTSKLTR chain 2: VVGGEDAKPGQFPWQVVLNGKVDAFCGGSIVNEKWIVTAAHCVETGVKITVVAGEHNIEETEHTEQKRNVIRIIPHHNYNAAINKYNHDIALLELDEPLVLNSYVTPICIADKEYTNIFLKFGSGYVSGWGRVFHKGYSALVLQYLRVPLVDRATCLESTKFTIYNNMFCAGFHEGGRDSCQGDSGGPHVTEVEGTSFLTGIISWGEECAMKGKYGIYTKVSEYVNWIKNKTKLT | > 517 | 0.0385 | 5.7 |  |  | 
2 | FIXa variant K247N/N249S/N260S/R318Y/R338E/R403E/E410N (mature FIX numbering) (protein) chain 1: YNSGKLEEFVQGNLERECMEEKCSFEEAREVFENTERTTEFWKQYVDGDQCESNPCLNGGSCKDDINSYECWCPFGFEGKNCELDVTCNIKNGRCEQFCKNSADNKVVCSCTEGYRLAENQKSCEPAVPFPCGRVSVSQTSKLTR chain 2: VVGGEDAKPGQFPWQVVLNGKVDAFCGGSIVNEKWIVTAAHCVETGVKITVVAGEHNIEETEHTEQNRSVIRIIPHHNYSAAINKYNHDIALLELDEPLVLNSYVTPICIADKEYTNIFLKFGSGYVSGWGRVFHKGYSALVLQYLRVPLVDRATCLESTKFTIYNNMFCAGFHEGGRDSCQGDSGGPHVTEVEGTSFLTGIISWGEECAMKGKYGIYTKVSEYVNWIKNKTKLT |  |  |  | 288 |  | 
3 | FIXa Y155F/R318Y/R338E/R403E/E410N (protein) chain 1: YNSGKLEEFVQGNLERECMEEKCSFEEAREVFENTERTTEFWKQYVDGDQCESNPCLNGGSCKDDINSYECWCPFGFEGKNCELDVTCNIKNGRCEQFCKNSADNKVVCSCTEGYRLAENQKSCEPAVPFPCGRVSVSQTSKLTR chain 2: VVGGEDAKPGQFPWQVVLNGKVDAFCGGSIVNEKWIVTAAHCVETGVKITVVAGEHNIEETEHTEQKRNVIRIIPHHNYNAAINKYNHDIALLELDEPLVLNSYVTPICIADKEYTNIFLKFGSGYVSGWGRVFHKGYSALVLQYLRVPLVDRATCLESTKFTIYNNMFCAGFHEGGRDSCQGDSGGPHVTEVEGTSFLTGIISWGEECAMKGKYGIYTKVSEYVNWIKNKTKLT |  |  |  |  | 0.0304 | K0.5-mut/K0.5-wt [3]: > 517
4 | FIXa-K247N/N249S/N260S/R318Y/R338E/R403E/E410N (protein) chain 1: YNSGKLEEFVQGNLERECMEEKCSFEEAREVFENTERTTEFWKQYVDGDQCESNPCLNGGSCKDDINSYECWCPFGFEGKNCELDVTCNIKNGRCEQFCKNSADNKVVCSCTEGYRLAENQKSCEPAVPFPCGRVSVSQTSKLTR chain 2: VVGGEDAKPGQFPWQVVLNGKVDAFCGGSIVNEKWIVTAAHCVETGVKITVVAGEHNIEETEHTEQNRSVIRIIPHHNYSAAINKYNHDIALLELDEPLVLNSYVTPICIADKEYTNIFLKFGSGYVSGWGRVFHKGYSALVLQYLRVPLVDRATCLESTKFTIYNNMFCAGFHEGGRDSCQGDSGGPHVTEVEGTSFLTGIISWGEECAMKGKYGIYTKVSEYVNWIKNKTKLT |  |  |  |  | 0.0622 | K0.5-mut/K0.5-wt [4]: 288 fold; % of WT kcat/KM (Factor X, P00742): 217%; kcat (Factor X, P00742): 6 s⁻¹; kcat/KM (Factor X, P00742): 9.7e+07 M⁻¹ s⁻¹; kcat of FX activation by FIXa (Xase complex with FVIIIa, PC/PS vesicles, Ca2+) (Factor X (FX), P00742): 3.4 s⁻¹
5 | FIXa A103N/N105S/Y155F/R318Y/R338E/R403E/E410N (protein) chain 1: YNSGKLEEFVQGNLERECMEEKCSFEEAREVFENTERTTEFWKQYVDGDQCESNPCLNGGSCKDDINSYECWCPFGFEGKNCELDVTCNIKNGRCEQFCKNSNDSKVVCSCTEGYRLAENQKSCEPAVPFPCGRVSVSQTSKLTR chain 2: VVGGEDAKPGQFPWQVVLNGKVDAFCGGSIVNEKWIVTAAHCVETGVKITVVAGEHNIEETEHTEQKRNVIRIIPHHNYNAAINKYNHDIALLELDEPLVLNSYVTPICIADKEYTNIFLKFGSGYVSGWGRVFHKGYSALVLQYLRVPLVDRATCLESTKFTIYNNMFCAGFHEGGRDSCQGDSGGPHVTEVEGTSFLTGIISWGEECAMKGKYGIYTKVSEYVNWIKNKTKLT |  |  |  |  | 0.0507 | K0.5-mut/K0.5-wt [3]: > 517
6 | FIXa variant Y155F/K247N/N249S/N260S (mature FIX numbering) (protein) chain 1: YNSGKLEEFVQGNLERECMEEKCSFEEAREVFENTERTTEFWKQYVDGDQCESNPCLNGGSCKDDINSYECWCPFGFEGKNCELDVTCNIKNGRCEQFCKNSADNKVVCSCTEGYRLAENQKSCEPAVPFPCGRVSVSQTSKLTR chain 2: VVGGEDAKPGQFPWQVVLNGKVDAFCGGSIVNEKWIVTAAHCVETGVKITVVAGEHNIEETEHTEQNRSVIRIIPHHNYSAAINKYNHDIALLELDEPLVLNSYVTPICIADKEYTNIFLKFGSGYVSGWGRVFHKGRSALVLQYLRVPLVDRATCLRSTKFTIYNNMFCAGFHEGGRDSCQGDSGGPHVTEVEGTSFLTGIISWGEECAMKGKYGIYTKVSRYVNWIKEKTKLT |  |  |  | 7.9 |  | 
7 | FIXa variant D104N/K106S/K247N/N249S/N260S (mature FIX numbering) (protein) chain 1: YNSGKLEEFVQGNLERECMEEKCSFEEAREVFENTERTTEFWKQYVDGDQCESNPCLNGGSCKDDINSYECWCPFGFEGKNCELDVTCNIKNGRCEQFCKNSANNSVVCSCTEGYRLAENQKSCEPAVPFPCGRVSVSQTSKLTR chain 2: VVGGEDAKPGQFPWQVVLNGKVDAFCGGSIVNEKWIVTAAHCVETGVKITVVAGEHNIEETEHTEQNRSVIRIIPHHNYSAAINKYNHDIALLELDEPLVLNSYVTPICIADKEYTNIFLKFGSGYVSGWGRVFHKGRSALVLQYLRVPLVDRATCLRSTKFTIYNNMFCAGFHEGGRDSCQGDSGGPHVTEVEGTSFLTGIISWGEECAMKGKYGIYTKVSRYVNWIKEKTKLT |  |  |  | 65.3 |  | 
8 | FIXa-D104N/K106S/Y155F/R318Y/R338E/R403E/E410N (protein) chain 1: YNSGKLEEFVQGNLERECMEEKCSFEEAREVFENTERTTEFWKQYVDGDQCESNPCLNGGSCKDDINSYECWCPFGFEGKNCELDVTCNIKNGRCEQFCKNSANNSVVCSCTEGYRLAENQKSCEPAVPFPCGRVSVSQTSKLTR chain 2: VVGGEDAKPGQFPWQVVLNGKVDAFCGGSIVNEKWIVTAAHCVETGVKITVVAGEHNIEETEHTEQKRNVIRIIPHHNYNAAINKYNHDIALLELDEPLVLNSYVTPICIADKEYTNIFLKFGSGYVSGWGRVFHKGYSALVLQYLRVPLVDRATCLESTKFTIYNNMFCAGFHEGGRDSCQGDSGGPHVTEVEGTSFLTGIISWGEECAMKGKYGIYTKVSEYVNWIKNKTKLT | > 517 | 0.048 | 8.5 |  |  | 
9 | FIXa variant D104N/K106S/Y155F/K247N/N249S/N260S (mature FIX numbering) (protein) chain 1: YNSGKLEEFVQGNLERECMEEKCSFEEAREVFENTERTTEFWKQYVDGDQCESNPCLNGGSCKDDINSYECWCPFGFEGKNCELDVTCNIKNGRCEQFCKNSANNSVVCSCTEGYRLAENQKSCEPAVPFPCGRVSVSQTSKLTR chain 2: VVGGEDAKPGQFPWQVVLNGKVDAFCGGSIVNEKWIVTAAHCVETGVKITVVAGEHNIEETEHTEQNRSVIRIIPHHNYSAAINKYNHDIALLELDEPLVLNSYVTPICIADKEYTNIFLKFGSGYVSGWGRVFHKGRSALVLQYLRVPLVDRATCLRSTKFTIYNNMFCAGFHEGGRDSCQGDSGGPHVTEVEGTSFLTGIISWGEECAMKGKYGIYTKVSRYVNWIKEKTKLT |  |  |  | 35.8 |  | 
10 | FIXa D104N/K106S/R318Y/R338E/R403E/E410N (protein) chain 1: YNSGKLEEFVQGNLERECMEEKCSFEEAREVFENTERTTEFWKQYVDGDQCESNPCLNGGSCKDDINSYECWCPFGFEGKNCELDVTCNIKNGRCEQFCKNSANNSVVCSCTEGYRLAENQKSCEPAVPFPCGRVSVSQTSKLTR chain 2: VVGGEDAKPGQFPWQVVLNGKVDAFCGGSIVNEKWIVTAAHCVETGVKITVVAGEHNIEETEHTEQKRNVIRIIPHHNYNAAINKYNHDIALLELDEPLVLNSYVTPICIADKEYTNIFLKFGSGYVSGWGRVFHKGYSALVLQYLRVPLVDRATCLESTKFTIYNNMFCAGFHEGGRDSCQGDSGGPHVTEVEGTSFLTGIISWGEECAMKGKYGIYTKVSEYVNWIKNKTKLT |  |  |  |  | 0.0385 | K0.5-mut/K0.5-wt [3]: > 517
11 | FIXa-Y155F/R318Y/R338E/R403E/E410N (protein) chain 1: YNSGKLEEFVQGNLERECMEEKCSFEEAREVFENTERTTEFWKQYVDGDQCESNPCLNGGSCKDDINSYECWCPFGFEGKNCELDVTCNIKNGRCEQFCKNSADNKVVCSCTEGYRLAENQKSCEPAVPFPCGRVSVSQTSKLTR chain 2: VVGGEDAKPGQFPWQVVLNGKVDAFCGGSIVNEKWIVTAAHCVETGVKITVVAGEHNIEETEHTEQKRNVIRIIPHHNYNAAINKYNHDIALLELDEPLVLNSYVTPICIADKEYTNIFLKFGSGYVSGWGRVFHKGYSALVLQYLRVPLVDRATCLESTKFTIYNNMFCAGFHEGGRDSCQGDSGGPHVTEVEGTSFLTGIISWGEECAMKGKYGIYTKVSEYVNWIKNKTKLT | > 517 | 0.0304 | 5.3 |  |  | 
12 | FIXa variant K247N/N249S/N260S (mature FIX numbering) (protein) chain 1: YNSGKLEEFVQGNLERECMEEKCSFEEAREVFENTERTTEFWKQYVDGDQCESNPCLNGGSCKDDINSYECWCPFGFEGKNCELDVTCNIKNGRCEQFCKNSADNKVVCSCTEGYRLAENQKSCEPAVPFPCGRVSVSQTSKLTR chain 2: VVGGEDAKPGQFPWQVVLNGKVDAFCGGSIVNEKWIVTAAHCVETGVKITVVAGEHNIEETEHTEQNRSVIRIIPHHNYSAAINKYNHDIALLELDEPLVLNSYVTPICIADKEYTNIFLKFGSGYVSGWGRVFHKGRSALVLQYLRVPLVDRATCLRSTKFTIYNNMFCAGFHEGGRDSCQGDSGGPHVTEVEGTSFLTGIISWGEECAMKGKYGIYTKVSRYVNWIKEKTKLT |  |  |  | 8.1 |  | 
13 | FIXa-A103N/N105S/Y155F/R318Y/R338E/R403E/E410N (protein) chain 1: YNSGKLEEFVQGNLERECMEEKCSFEEAREVFENTERTTEFWKQYVDGDQCESNPCLNGGSCKDDINSYECWCPFGFEGKNCELDVTCNIKNGRCEQFCKNSNDSKVVCSCTEGYRLAENQKSCEPAVPFPCGRVSVSQTSKLTR chain 2: VVGGEDAKPGQFPWQVVLNGKVDAFCGGSIVNEKWIVTAAHCVETGVKITVVAGEHNIEETEHTEQKRNVIRIIPHHNYNAAINKYNHDIALLELDEPLVLNSYVTPICIADKEYTNIFLKFGSGYVSGWGRVFHKGYSALVLQYLRVPLVDRATCLESTKFTIYNNMFCAGFHEGGRDSCQGDSGGPHVTEVEGTSFLTGIISWGEECAMKGKYGIYTKVSEYVNWIKNKTKLT | > 517 | 0.0507 | 6.4 |  |  | 
